Results taken from the supplement of paper PMC9112550, “Optimization of the antimicrobial peptide Bac7 by deep mutational scanning” (BMC Biology, 2022).

Tested on: Escherichia coli TOP10
Assay: shrunken log2 fold change of peptide-encoding DNA abundance (4.5 h post-induction vs induction); higher = less antimicrobial activity (less host growth inhibition)
Details: time post-induction: 4.5 h; library: site-saturation at positions 5, 18, 19, 20
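Further: peptides expressed intracellularly from a pBAD plasmid library in pooled LB shake-flask culture, induced with 0.3% L-arabinose, DNA abundance read by NGS, three biological replicates, DESeq2 with apeglm shrinkage.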

Sequence	shrunken log2 fold change
RRIRIRPPRLPRPRPRPPVIPRP	-0.108
RRIRMRPPRLPRPRPRPHNKPRP	-0.305
RRIRKRPPRLPRPRPRPNQIPRP	0.105
RRIRQRPPRLPRPRPRPITWPRP	0.129
RRIRWRPPRLPRPRPRPNVDPRP	-0.0535
RRIRWRPPRLPRPRPRPAKVPRP	-0.177
RRIRVRPPRLPRPRPRPSWTPRP	-0.0613
RRIRERPPRLPRPRPRPYKVPRP	-0.0366
RRIRNRPPRLPRPRPRPTPQPRP	0.232
RRIRRRPPRLPRPRPRPWYLPRP	-0.313
RRIRHRPPRLPRPRPRPPLKPRP	-0.00744
RRIRFRPPRLPRPRPRPCYQPRP	-0.229
RRIRTRPPRLPRPRPRPCVLPRP	0.0134
RRIRHRPPRLPRPRPRPTKTPRP	-0.194
RRIRDRPPRLPRPRPRPIVYPRP	-0.0329
RRIRDRPPRLPRPRPRPRCTPRP	-0.054
RRIRQRPPRLPRPRPRPKKYPRP	-0.0221
RRIRWRPPRLPRPRPRPGDYPRP	0.0468
RRIRYRPPRLPRPRPRPYLMPRP	-0.254
RRIRARPPRLPRPRPRPSGSPRP	0.216
RRIRWRPPRLPRPRPRPATQPRP	0.105
RRIRDRPPRLPRPRPRPICCPRP	0.037
RRIRFRPPRLPRPRPRPAMWPRP	0.0848
RRIRERPPRLPRPRPRPMPCPRP	-0.0207
RRIRRRPPRLPRPRPRPTWHPRP	0.429

Sequence	shrunken log2 fold change
RRIRTRPPRLPRPRPRPMWQPRP	0.0135
RRIRTRPPRLPRPRPRPYMAPRP	-1.06
RRIRVRPPRLPRPRPRPAQQPRP	0.375
RRIRVRPPRLPRPRPRPKVCPRP	-0.0503
RRIRVRPPRLPRPRPRPFFHPRP	0.145
RRIRCRPPRLPRPRPRPIGSPRP	-0.139
RRIRIRPPRLPRPRPRPFLTPRP	-0.736
RRIRMRPPRLPRPRPRPPCAPRP	2.14
RRIRCRPPRLPRPRPRPCFQPRP	-0.212
RRIRERPPRLPRPRPRPNVYPRP	-0.439
RRIRTRPPRLPRPRPRPIGEPRP	-0.195
RRIRRRPPRLPRPRPRPICDPRP	0.309
RRIRVRPPRLPRPRPRPHNYPRP	-0.181
RRIRARPPRLPRPRPRPCVLPRP	-0.0267
RRIRLRPPRLPRPRPRPKDRPRP	0.0663
RRIRGRPPRLPRPRPRPQIEPRP	0.462
RRIRTRPPRLPRPRPRPEKTPRP	0.051
RRIRTRPPRLPRPRPRPWFAPRP	0.0386
RRIRGRPPRLPRPRPRPPCWPRP	1.09
RRIRSRPPRLPRPRPRPGLNPRP	-0.207
RRIRNRPPRLPRPRPRPICTPRP	-0.122
RRIRVRPPRLPRPRPRPLAGPRP	0.334
RRIRRRPPRLPRPRPRPTLMPRP	0.581
RRIRLRPPRLPRPRPRPFHVPRP	-0.0193
RRIRGRPPRLPRPRPRPTRWPRP	0.739

Sequence	shrunken log2 fold change
RRIRVRPPRLPRPRPRPGRLPRP	-0.0194
RRIRIRPPRLPRPRPRPHAMPRP	-0.125
RRIRQRPPRLPRPRPRPHFMPRP	-0.0158
RRIRIRPPRLPRPRPRPRDTPRP	-0.534
RRIRARPPRLPRPRPRPWWHPRP	-0.0749
RRIRERPPRLPRPRPRPEYLPRP	-1.13
RRIRDRPPRLPRPRPRPTNPPRP	-0.417
RRIRCRPPRLPRPRPRPGWEPRP	0.253
RRIRYRPPRLPRPRPRPCFIPRP	-0.321
RRIRHRPPRLPRPRPRPACCPRP	-0.0888
RRIRWRPPRLPRPRPRPIDQPRP	0.105
RRIRYRPPRLPRPRPRPVSVPRP	-0.0879
RRIRWRPPRLPRPRPRPHDVPRP	0.132
RRIRARPPRLPRPRPRPHIIPRP	-0.0334
RRIRCRPPRLPRPRPRPTVLPRP	-0.174
RRIRCRPPRLPRPRPRPGCVPRP	0.248
RRIRRRPPRLPRPRPRPIECPRP	-0.00663
RRIRMRPPRLPRPRPRPMGFPRP	-0.0135
RRIRDRPPRLPRPRPRPDSTPRP	-0.00421
RRIRVRPPRLPRPRPRPTFTPRP	-0.073
RRIRMRPPRLPRPRPRPTLHPRP	0.294
RRIRRRPPRLPRPRPRPRRDPRP	0.19
RRIRQRPPRLPRPRPRPVAQPRP	0.24
RRIRIRPPRLPRPRPRPWPQPRP	0.0274
RRIRMRPPRLPRPRPRPNRHPRP	0.0213

Sequence	shrunken log2 fold change
RRIRWRPPRLPRPRPRPDDYPRP	0.0299
RRIRKRPPRLPRPRPRPLQGPRP	0.154
RRIRERPPRLPRPRPRPFDGPRP	0.000346
RRIRNRPPRLPRPRPRPMDVPRP	0.0039
RRIRTRPPRLPRPRPRPKNRPRP	-0.0821
RRIRIRPPRLPRPRPRPYNAPRP	-0.734
RRIRHRPPRLPRPRPRPSINPRP	-0.605
RRIRLRPPRLPRPRPRPNSFPRP	-0.191
RRIRWRPPRLPRPRPRPWPRPRP	0.223
RRIRTRPPRLPRPRPRPCSNPRP	-0.0243
RRIRFRPPRLPRPRPRPFCGPRP	-0.0609
RRIRQRPPRLPRPRPRPWMGPRP	0.063
RRIRHRPPRLPRPRPRPDRAPRP	0.217
RRIRERPPRLPRPRPRPYKKPRP	0.0359
RRIRHRPPRLPRPRPRPAVKPRP	-0.0915
RRIRQRPPRLPRPRPRPANTPRP	-0.118
RRIRKRPPRLPRPRPRPMQRPRP	0.744
RRIRFRPPRLPRPRPRPEFEPRP	0.122
RRIRCRPPRLPRPRPRPAHKPRP	-0.0944
RRIRWRPPRLPRPRPRPRICPRP	-0.0691
RRIRCRPPRLPRPRPRPMYGPRP	-0.675
RRIRCRPPRLPRPRPRPYKWPRP	-0.636
RRIRTRPPRLPRPRPRPADMPRP	-0.431
RRIRNRPPRLPRPRPRPHAPPRP	0.0879
RRIRGRPPRLPRPRPRPGSRPRP	0.565

Sequence	shrunken log2 fold change
RRIRMRPPRLPRPRPRPGDWPRP	1.33
RRIRVRPPRLPRPRPRPPPQPRP	0.856
RRIRQRPPRLPRPRPRPHMFPRP	0.0177
RRIRSRPPRLPRPRPRPRVSPRP	-0.0241
RRIRQRPPRLPRPRPRPQKEPRP	-0.00507
RRIRYRPPRLPRPRPRPVVVPRP	0.00571
RRIRLRPPRLPRPRPRPQWTPRP	0.107
RRIRPRPPRLPRPRPRPYYTPRP	-0.379
RRIRRRPPRLPRPRPRPICPPRP	-0.0986
RRIRHRPPRLPRPRPRPMWLPRP	-0.362
RRIRQRPPRLPRPRPRPPHCPRP	0.0459
RRIRGRPPRLPRPRPRPNWNPRP	-0.00809
RRIRNRPPRLPRPRPRPLDSPRP	-0.125
RRIRVRPPRLPRPRPRPFKGPRP	-0.0313
RRIRFRPPRLPRPRPRPVGIPRP	-0.135
RRIRARPPRLPRPRPRPTPYPRP	-0.0244
RRIRCRPPRLPRPRPRPSYLPRP	-1
RRIRDRPPRLPRPRPRPTKIPRP	0.0599
RRIRARPPRLPRPRPRPFWVPRP	-0.0841
RRIRTRPPRLPRPRPRPRKTPRP	0.111
RRIRARPPRLPRPRPRPYNSPRP	-1.21
RRIRKRPPRLPRPRPRPIWAPRP	-0.0352
RRIRQRPPRLPRPRPRPTPYPRP	-0.266
RRIRARPPRLPRPRPRPPGCPRP	0.746
RRIRRRPPRLPRPRPRPEWHPRP	-0.107
